According to PMC10501992, “How Pol α-primase is targeted to replisomes to prime eukaryotic DNA replication” (Molecular Cell, 2023):

Experiments:
[1] = molecular target: T1, Tof1 (budding yeast) (S. cerevisiae, UniProt P53840 1-1238); test: cryo-EM structure; budding yeast replisome: 150 nM CMG on fork DNA (39 nt 3′ flap, 60 nt 5′ flap) with 1.5-fold molar excess of Tof1-Csm3, Mrc1 and Pol α-primase; 25 mM HEPES-NaOH pH 7.6, 150 mM NaOAc, 0.5 mM TCEP, 500 μM AMP-PNP, 10 mM Mg(OAc)2, on ice; 10-30% glycerol gradient with glutaraldehyde and BS3 cross-linkers; settings: both partners purified
T1 construct: Tof1, S. cerevisiae; stood in the assay as a subunit of m13; source: subunit of Tof1-Csm3 from S. cerevisiae strain yAE48, purified as described previously
T1 sequence: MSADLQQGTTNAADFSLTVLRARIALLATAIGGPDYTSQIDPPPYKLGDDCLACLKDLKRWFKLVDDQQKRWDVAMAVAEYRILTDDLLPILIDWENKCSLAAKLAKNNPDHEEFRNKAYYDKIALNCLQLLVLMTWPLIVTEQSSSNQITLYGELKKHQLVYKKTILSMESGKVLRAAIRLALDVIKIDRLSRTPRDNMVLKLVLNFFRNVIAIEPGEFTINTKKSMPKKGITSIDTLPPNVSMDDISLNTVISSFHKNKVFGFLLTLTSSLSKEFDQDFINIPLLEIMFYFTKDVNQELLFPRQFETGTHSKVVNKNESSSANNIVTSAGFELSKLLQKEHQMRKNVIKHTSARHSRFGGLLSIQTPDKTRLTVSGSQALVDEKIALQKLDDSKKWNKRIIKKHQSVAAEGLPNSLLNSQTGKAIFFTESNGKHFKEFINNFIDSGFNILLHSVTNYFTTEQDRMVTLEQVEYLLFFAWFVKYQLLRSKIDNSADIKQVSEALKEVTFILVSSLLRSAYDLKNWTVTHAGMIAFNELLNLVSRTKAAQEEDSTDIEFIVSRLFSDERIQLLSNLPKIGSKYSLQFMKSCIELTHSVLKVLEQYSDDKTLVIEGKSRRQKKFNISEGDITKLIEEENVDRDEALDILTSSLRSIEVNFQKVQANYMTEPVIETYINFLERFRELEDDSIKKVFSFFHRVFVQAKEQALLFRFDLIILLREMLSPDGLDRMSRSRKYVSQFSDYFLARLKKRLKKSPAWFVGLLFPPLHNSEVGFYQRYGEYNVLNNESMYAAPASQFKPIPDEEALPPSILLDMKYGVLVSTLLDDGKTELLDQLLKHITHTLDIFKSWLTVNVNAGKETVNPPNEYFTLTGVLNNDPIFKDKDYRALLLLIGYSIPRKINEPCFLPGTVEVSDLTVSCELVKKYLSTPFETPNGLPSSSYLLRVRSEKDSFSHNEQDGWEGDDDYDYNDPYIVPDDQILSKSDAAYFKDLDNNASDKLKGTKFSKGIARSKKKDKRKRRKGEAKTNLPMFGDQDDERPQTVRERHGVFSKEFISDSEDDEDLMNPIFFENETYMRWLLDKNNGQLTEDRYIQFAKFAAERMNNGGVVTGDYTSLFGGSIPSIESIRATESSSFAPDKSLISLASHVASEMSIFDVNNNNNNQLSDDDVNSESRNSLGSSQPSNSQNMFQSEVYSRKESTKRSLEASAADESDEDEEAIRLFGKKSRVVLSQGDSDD

[2] = molecular target: T2, budding yeast CMG (Cdc45-Mcm2-7-GINS) replicative helicase (S. cerevisiae, UniProt Q08032 1-650; P29469 1-868; P24279 1-971; P30665 1-933; P29496 1-775; P53091 …); test: as above; settings: both partners purified
T2 construct: Cdc45, S. cerevisiae; Mcm2, S. cerevisiae; Mcm3, S. cerevisiae; Mcm4, S. cerevisiae (named only within Mcm2-7); Mcm5, S. cerevisiae; Mcm6, S. cerevisiae (named only within Mcm2-7); Mcm7, S. cerevisiae (named only within Mcm2-7); Psf1, subunit of GINS, S. cerevisiae; Psf2, subunit of GINS, S. cerevisiae; Sld5, subunit of GINS, S. cerevisiae; source: S. cerevisiae strain yJY197, expressed and …

B1: Mrc1 (budding yeast) (natural protein, S. cerevisiae)
chain: MDDALHALSSLTAKKRTTTYKKVAVPILDENDNTNGNGPNDIDNPPELTGNGFLFANATLNRVKNRLEGKKAPEQNHNNGKDRSENSLPTQLISNLYDGGEELEKSEVKDNSYSEKNVSSSFTQTQRIPVSIQQDKVFNVPIHSVNDGKPTQLIKEDGLVNETSQALKTPLTTGRPGATQRIDSSGATSQTQPIKSIEPQSQIITTSSNHSNALSPKIPIIPTELIGTSPLFQSIQNRGPDTQMDVPPQTAHDEDKTQAIGIPQATHQEQKTQIDTVAQTLQDEVPHTLKIREIQSELASEDSKREKARNVEYKKPQKPIPTKKFFSKESFLADFDDSSSNEDDDIKLENAHPKPVQNDDELHENKSVELNLTDETRINEKRVPLLSSYANNLKREIDSSKCITLDLDSDSDEYGDDDMDSIKLSKDESVLPISQLSKATILNLKARLSKQNQKLSQRPNKSKDPKVDHNVLLNTLRKASRKQILDHQKEVIETKGLKLEDMAKEKEIVENLLEQEILRNKRIRQKEKRREKLEENDFQLNAHDSGSDSGSESSGFALSGNEIADYESSGSENDNRRESDSEKEDDEIILKQKKSHHVKHIINESDSDTEVEAKPKEKADESLPKRIAINLGHYGDNIGEDTDKFQETNVLDTQNIEEVMAERNTIENEVKDDVYVNEEADEAIRRQLIDKEKLQLKQKEKEHEAKIKELKKRGVTNFFEMEAEESEDEWHGIGGADGEGSDDYDSDLEKMIDDYSKNNFNPHEIREMLAAENKEMDIKMINKILYDIKNGGFRNKRAKNSLELELSDDDEDDVLQQYRLKRRELMRKRRLEIGDDAKLVKNPKSSAFFESMVEDIIEYKNPFGAEEEYNLDITSTATDLDTQDNSINVGDNTGNNEQKPVDQKNKKVIISEDFVQKSLSFLKSNNYEDFETDKELSRIQHGNDEAIEDLYTLKQNSSIKSFTNSQTDSTTSKTVNTIIDLEKRPEDEDEVENGDTSLVGVFKHPSIIKSFASRTDINDKFKEGNKTVKILKSYKTVGSSKASITYMGKTRKLIAPKRKTEGSHRYHHDHHNKKMKMKTKTKSNKLFESGQDSFDN
notes: Mrc1, S. cerevisiae; several small sections modelled (S339-K323 as printed, D468-Q483, N842-E858); source: S. cerevisiae strain yJY32, expressed and purified as described previously
Does B1 bind [1]?
Result: binds

Does B1 bind [2]?
Result: binds
